From the supplement of paper PMC10065799, “High-throughput profiling of sequence recognition by tyrosine kinases and SH2 domains using bacterial peptide display” (eLife, 2023)

Each sequence was assayed against EPHB2 (UniProt P29323) (assay: phosphorylation enrichment, bacterial display (enrichment ratio); higher = better substrate or ligand; peptides without Tyr show the background).
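Note: 11-residue human phosphosite peptides and single-mutation variants displayed on the E. coli surface, counted by deep sequencing, each peptide's frequency after selection divided by its frequency in the unselected input library; frequency after pTyr selection over input frequency; kinase dosed for 20-30% of maximal phosphorylation in three min.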

Chain of EPHB2 (P29323 whole entry, looked up): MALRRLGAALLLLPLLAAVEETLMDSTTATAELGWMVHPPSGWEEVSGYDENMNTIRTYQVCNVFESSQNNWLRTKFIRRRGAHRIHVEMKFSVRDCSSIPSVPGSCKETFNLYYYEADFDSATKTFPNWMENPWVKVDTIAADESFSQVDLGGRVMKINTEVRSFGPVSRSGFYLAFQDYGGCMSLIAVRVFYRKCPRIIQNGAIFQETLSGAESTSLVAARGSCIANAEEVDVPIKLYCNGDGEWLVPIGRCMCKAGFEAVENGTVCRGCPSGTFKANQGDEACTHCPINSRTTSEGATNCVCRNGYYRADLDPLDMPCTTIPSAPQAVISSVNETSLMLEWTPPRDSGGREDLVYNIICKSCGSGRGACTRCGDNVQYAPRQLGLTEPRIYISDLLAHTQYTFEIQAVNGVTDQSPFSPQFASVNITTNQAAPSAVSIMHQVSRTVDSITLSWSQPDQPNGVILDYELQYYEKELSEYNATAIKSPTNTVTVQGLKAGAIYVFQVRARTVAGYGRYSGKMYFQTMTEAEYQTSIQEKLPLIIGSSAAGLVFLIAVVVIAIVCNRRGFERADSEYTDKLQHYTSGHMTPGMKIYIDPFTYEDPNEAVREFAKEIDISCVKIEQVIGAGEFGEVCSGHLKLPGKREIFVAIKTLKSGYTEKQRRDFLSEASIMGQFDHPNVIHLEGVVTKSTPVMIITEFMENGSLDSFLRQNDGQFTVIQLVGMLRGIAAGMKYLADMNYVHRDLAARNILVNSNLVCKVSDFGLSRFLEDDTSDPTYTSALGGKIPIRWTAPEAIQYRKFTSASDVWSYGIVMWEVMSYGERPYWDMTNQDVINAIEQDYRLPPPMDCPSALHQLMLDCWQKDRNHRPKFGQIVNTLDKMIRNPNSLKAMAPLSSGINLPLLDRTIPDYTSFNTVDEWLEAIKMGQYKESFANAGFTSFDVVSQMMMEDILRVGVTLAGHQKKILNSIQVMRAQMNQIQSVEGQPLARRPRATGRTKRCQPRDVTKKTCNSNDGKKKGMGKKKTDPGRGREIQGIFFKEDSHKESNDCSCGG

| Sequence | phosphorylation enrichment |
| --- | --- |
| KANEFYPVVII [ADAMTS18_Y765_L769I_YF] | 0.695 |
| DIMDLYNQPEP [IL36A_Y96] | 0.602 |
| YNNYGYGNDGF [HNRNPH3_Y161] | 6.45 |
| AVEDQYFCVDC [FHL1_Y207_YF] | 0.862 |
| EGNEQYEGFCV [GRIA3_Y451_R450Q_YF] | 0.639 |
| DHAGTYGLGDR [MAPT_Y18] | 0.304 |
| ATPKGYEPDAS [OTC_Y223] | 0.575 |
| NRVEIYDKTVE [CYFIP1_Y108_E109D] | 0.521 |
| FTRNYYVQAVL [CYBA_Y88_R90Q] | 0.558 |
| AGNPAYRSFSN [IL4R_Y497] | 0.318 |
| ENEGTYVCIAA [ADAMTSL3_Y1365_T1370A] | 1.09 |
| QYPDVYAREEV [CRX_Y67] | 1.82 |
| SLVVPYEPPEV [TP53_Y220_V216L] | 0.756 |
| PLKFLYPNIDR [STAT1_Y668_K673R_YF] | 0.664 |
| LNPDGYEKAFE [CPXM2_Y427_YF] | 0.988 |
| SAPPSHEETVA [LITAF_Y23_Y23H] | 0.393 |
| TESALYGCTIL [MAP3K21_Y724_V728I] | 0.989 |

| Sequence | phosphorylation enrichment |
| --- | --- |
| GHLFACDWISI [BEST1_Y227_Y227C_YF] | 0.522 |
| QIGRKYKKVRF [F8_Y442_R437Q] | 0.44 |
| RREWFYEVIIV [BACE1_Y260_YF] | 0.372 |
| TLKDVYDDGKY [RPS6KA3_Y483] | 0.497 |
| PLQDVYKIGGI [EEF1A2_Y254] | 0.572 |
| PQEVMYAQLDH [KIR3DL2_Y398_T397M] | 0.621 |
| SVQVDYMKTIL [GLYATL2_Y127] | 0.611 |
| RQQEVYLLYKQ [RARRES1_Y159_D158V] | 0.855 |
| KERNQYGEVMV [MMP21_Y347] | 0.436 |
| DVLVEYQEEGR [GNS_Y416_G418E] | 0.617 |
| DTKPAYQNLRQ [BOD1_Y82] | 0.35 |
| SGETEYNPTEA [NBEAL2_Y2748] | 0.671 |
| RRSQSYNPTSG [PLEKHA2_Y185_I186N] | 0.512 |
| FISVGYVDDTL [HLA-B_Y51_Q56L] | 0.736 |
| EQSGSYIWVLA [DLG1_Y895_P899L] | 0.641 |
| DDKQPYEKKAA [HMGB1_Y144] | 0.464 |

Each sequence was assayed against Hck (UniProt P08631) in the same assay as above.
Chain of Hck (P08631 whole entry, looked up): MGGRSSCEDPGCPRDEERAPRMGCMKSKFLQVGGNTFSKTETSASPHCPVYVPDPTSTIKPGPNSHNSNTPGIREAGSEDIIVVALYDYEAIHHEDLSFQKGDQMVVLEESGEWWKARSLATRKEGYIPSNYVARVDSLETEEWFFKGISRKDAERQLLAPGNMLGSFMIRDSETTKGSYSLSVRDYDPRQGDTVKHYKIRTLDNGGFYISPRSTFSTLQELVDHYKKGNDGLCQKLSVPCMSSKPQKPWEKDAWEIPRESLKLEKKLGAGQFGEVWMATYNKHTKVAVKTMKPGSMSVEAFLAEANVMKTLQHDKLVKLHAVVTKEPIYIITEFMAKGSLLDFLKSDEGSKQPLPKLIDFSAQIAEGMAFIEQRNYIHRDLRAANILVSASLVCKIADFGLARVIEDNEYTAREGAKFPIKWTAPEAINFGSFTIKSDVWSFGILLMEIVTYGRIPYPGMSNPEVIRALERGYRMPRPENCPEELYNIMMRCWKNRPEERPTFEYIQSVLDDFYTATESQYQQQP

| Sequence | phosphorylation enrichment |
| --- | --- |
| KANEFYPVVII [ADAMTS18_Y765_L769I_YF] | 0.458 |
| DIMDLYNQPEP [IL36A_Y96] | 0.817 |
| YNNYGYGNDGF [HNRNPH3_Y161] | 0.455 |
| AVEDQYFCVDC [FHL1_Y207_YF] | 0.791 |
| EGNEQYEGFCV [GRIA3_Y451_R450Q_YF] | 0.721 |
| DHAGTYGLGDR [MAPT_Y18] | 0.43 |
| ATPKGYEPDAS [OTC_Y223] | 0.444 |
| NRVEIYDKTVE [CYFIP1_Y108_E109D] | 0.682 |
| FTRNYYVQAVL [CYBA_Y88_R90Q] | 0.521 |
| AGNPAYRSFSN [IL4R_Y497] | 0.424 |
| ENEGTYVCIAA [ADAMTSL3_Y1365_T1370A] | 1.21 |
| QYPDVYAREEV [CRX_Y67] | 2.18 |
| SLVVPYEPPEV [TP53_Y220_V216L] | 0.663 |
| PLKFLYPNIDR [STAT1_Y668_K673R_YF] | 0.6 |
| LNPDGYEKAFE [CPXM2_Y427_YF] | 0.586 |
| SAPPSHEETVA [LITAF_Y23_Y23H] | 0.342 |
| TESALYGCTIL [MAP3K21_Y724_V728I] | 4.18 |

| Sequence | phosphorylation enrichment |
| --- | --- |
| GHLFACDWISI [BEST1_Y227_Y227C_YF] | 0.469 |
| QIGRKYKKVRF [F8_Y442_R437Q] | 1.19 |
| RREWFYEVIIV [BACE1_Y260_YF] | 0.561 |
| TLKDVYDDGKY [RPS6KA3_Y483] | 0.706 |
| PLQDVYKIGGI [EEF1A2_Y254] | 1.04 |
| PQEVMYAQLDH [KIR3DL2_Y398_T397M] | 5.19 |
| SVQVDYMKTIL [GLYATL2_Y127] | 0.517 |
| RQQEVYLLYKQ [RARRES1_Y159_D158V] | 0.877 |
| KERNQYGEVMV [MMP21_Y347] | 0.507 |
| DVLVEYQEEGR [GNS_Y416_G418E] | 0.661 |
| DTKPAYQNLRQ [BOD1_Y82] | 0.349 |
| SGETEYNPTEA [NBEAL2_Y2748] | 0.707 |
| RRSQSYNPTSG [PLEKHA2_Y185_I186N] | 0.821 |
| FISVGYVDDTL [HLA-B_Y51_Q56L] | 0.485 |
| EQSGSYIWVLA [DLG1_Y895_P899L] | 0.517 |
| DDKQPYEKKAA [HMGB1_Y144] | 0.536 |
